This note sets out measurements from patent US20190300590A1 (PROTAGONIST THERAPEUTICS, published 2019).

*1 amine or outer side, *2 acyl side, *3 side chain or, on linkers, in order; H or OH if unused. Bridges are numbered along the chain shown (N, C = ends). Primed or numbered codes have the meaning given here. [ ]: non-standard residue; d: D form. The star is where a group is joined. Phe(4-OMe)(3) = O-methyl-L-tyrosine (4-methoxy-L-phenylalanine), COc1ccc(C[C@H](N[*:1])C(=O)[*:2])cc1; Phe(4-OMe)(4) = O-methyl-L-tyrosine, COc1ccc(C[C@H](N[*:1])C(=O)[*:2])cc1; Trp(6-Cl) = N[C@@H](Cc1c[nH]c2cc(Cl)ccc12)C(=O)O; Phe(4-CONH2) = NC(=O)c1ccc(C[C@H](N)C(=O)O)cc1; 2Nal = N[C@@H](Cc1ccc2ccccc2c1)C(=O)O; AEF = NCCOc1ccc(C[C@H](N)C(=O)O)cc1; αMeL = CC(C)C[C@](C)(N)C(=O)O; Pen = CC(C)(S)[C@H](N)C(=O)O; αMeK = C[C@](N)(CCCCN)C(=O)O; Isovaleryl = CC(C)CC(=O)*; Abu = CC[C@H](N)C(=O)O

The target of assay [1] is T1, Rat IL-23R_huFC (rat, UniProt F1LX96 39-369).
T1 sequence: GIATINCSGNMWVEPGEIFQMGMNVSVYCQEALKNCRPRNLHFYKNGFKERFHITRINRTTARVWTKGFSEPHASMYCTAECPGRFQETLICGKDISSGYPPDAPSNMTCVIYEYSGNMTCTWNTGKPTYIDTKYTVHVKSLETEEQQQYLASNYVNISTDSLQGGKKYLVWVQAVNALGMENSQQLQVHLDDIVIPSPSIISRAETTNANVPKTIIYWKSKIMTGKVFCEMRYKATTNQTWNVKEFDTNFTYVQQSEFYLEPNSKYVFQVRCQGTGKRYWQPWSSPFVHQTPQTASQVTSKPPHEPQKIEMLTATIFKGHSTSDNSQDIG
Briefly: rat IL-23R competitive binding ELISA. A general note: ELISA stands for enzyme-linked immunosorbent assay.

Assay [2] deals with Rat IL-23R_huFC (rat). Briefly: rat ELISA vs IL-23.
Assay [3] concerns the target T2, IL23R_huFC (human, UniProt Q5VWK5 24-353).
T2 sequence (looked up): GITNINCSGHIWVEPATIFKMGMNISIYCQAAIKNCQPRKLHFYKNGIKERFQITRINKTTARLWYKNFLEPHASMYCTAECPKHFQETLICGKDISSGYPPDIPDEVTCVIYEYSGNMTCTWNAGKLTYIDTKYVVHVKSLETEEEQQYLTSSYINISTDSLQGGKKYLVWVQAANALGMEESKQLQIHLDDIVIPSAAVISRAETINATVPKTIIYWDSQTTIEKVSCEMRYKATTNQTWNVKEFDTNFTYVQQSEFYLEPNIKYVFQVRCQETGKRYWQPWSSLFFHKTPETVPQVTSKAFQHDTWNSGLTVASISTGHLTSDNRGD
Briefly: IL23-IL23R competitive binding ELISA.

The target in assay [4] is T3, IL-23R on human cells (IL-23R-expressing DB cells; human NK cells) (human, UniProt Q5VWK5 24-629).
T3 sequence (looked up): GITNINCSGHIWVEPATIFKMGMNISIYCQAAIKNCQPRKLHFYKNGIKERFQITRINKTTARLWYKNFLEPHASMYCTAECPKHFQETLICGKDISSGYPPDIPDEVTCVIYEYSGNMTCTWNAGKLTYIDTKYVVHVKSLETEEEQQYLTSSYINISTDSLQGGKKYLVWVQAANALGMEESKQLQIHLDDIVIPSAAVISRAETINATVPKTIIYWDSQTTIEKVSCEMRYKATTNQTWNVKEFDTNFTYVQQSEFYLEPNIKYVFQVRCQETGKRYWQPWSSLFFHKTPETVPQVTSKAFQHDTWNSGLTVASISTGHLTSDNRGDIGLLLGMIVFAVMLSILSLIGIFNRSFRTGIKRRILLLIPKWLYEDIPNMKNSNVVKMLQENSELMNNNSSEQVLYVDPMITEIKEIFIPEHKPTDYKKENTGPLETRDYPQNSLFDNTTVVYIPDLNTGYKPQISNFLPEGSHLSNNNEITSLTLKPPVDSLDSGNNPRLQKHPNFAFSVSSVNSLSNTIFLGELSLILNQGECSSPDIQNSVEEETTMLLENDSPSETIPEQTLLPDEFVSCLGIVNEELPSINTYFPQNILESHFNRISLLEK
Briefly: cell-based or functional assay.

In assay [5] the target is T4, IL23R_huFC (human, UniProt Q5VWK5 24-353).
T4 sequence (looked up): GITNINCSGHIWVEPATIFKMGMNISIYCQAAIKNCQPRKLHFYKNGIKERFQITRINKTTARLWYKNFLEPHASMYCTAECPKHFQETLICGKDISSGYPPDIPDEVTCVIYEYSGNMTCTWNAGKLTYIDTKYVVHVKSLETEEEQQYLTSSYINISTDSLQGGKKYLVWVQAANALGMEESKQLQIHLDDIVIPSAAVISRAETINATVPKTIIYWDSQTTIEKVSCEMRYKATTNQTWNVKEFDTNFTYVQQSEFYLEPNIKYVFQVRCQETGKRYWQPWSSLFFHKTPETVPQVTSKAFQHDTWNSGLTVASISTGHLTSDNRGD
Briefly: human ELISA vs IL-23.

In assay [6] the target is T4, IL23R_huFC. In words: human ELISA vs IL-23. The source holds these as a separate data set.

A word on the IC50: it is the concentration that inhibits the measured activity by half. Read a high IC50 as weaker potency.

B1: 4-fluorophenylacetic acid-[Pen]-QTWQ-[Pen]-[Phe(4-OMe)]-[2-Nal]-[α-MeLys]-[Lys(Ac)]-NG-NH2 (peptide)
peptide: XQTWQXFXKKNG
modifications: N-terminal 4-fluorophenylacetic acid; Pen-Pen disulfide; Phe(4-OMe); 2-Nal; α-MeLys; Lys(Ac); NH2
As for B1, the IC50 with Rat IL-23R_huFC [1] fell in the range of 100 to 1000 nM.
Still for that read-out and setting: the value for XQTWQXFXKKNG (Ac; Pen-Pen disulfide; Phe[4-(2-aminoethoxy)]; 2-Nal; α-MeLys; Lys(Ac); NH2) [Ac-[Pen]-QTWQ-[Pen]-[Phe[4-(2-aminoethoxy)]-[2-Nal]-[α-MeLys]-[Lys(Ac)]-NG-NH2] was 25 to 100 nM.
For the molecule Ac-[Abu]QTWQC[AEF]W[αMeK]ENG-NH2 (thioether 1-6) [Ac-Cyclo-[[Abu]-QTWQC]-[Phe[4-(2-aminoethoxy)]-W-[α-MeLys]-ENG-NH2], in the assay with Rat IL-23R_huFC [2], the IC50 was 10 to 25 nM.
For XQTWQXYWLENG (Ac; Pen-Pen disulfide; hLeu; NH2) [Ac-[[Pen]-QTWQ-[Pen]-YW-[hLeu]-ENG-NH2], the IC50 with IL23R_huFC [3] is 100 to 1000 nM.

B2: Ac-[Pen]-QTWQ-[Pen]-YW-[(D)Asn]-ENG-NH2 (peptide)
peptide: Ac-[Pen]QTWQ[Pen]YW[dN]ENG-NH2
modifications: disulfide 1-6
SMILES: CC(=O)N[C@@H]1C(=O)N[C@@H](CCC(N)=O)C(=O)N[C@@H]([C@@H](C)O)C(=O)N[C@@H](Cc2c[nH]c3ccccc23)C(=O)N[C@@H](CCC(N)=O)C(=O)N[C@H](C(=O)N[C@@H](Cc2ccc(O)cc2)C(=O)N[C@@H](Cc2c[nH]c3ccccc23)C(=O)N[C@H](CC(N)=O)C(=O)N[C@@H](CCC(=O)O)C(=O)N[C@@H](CC(N)=O)C(=O)NCC(N)=O)C(C)(C)SSC1(C)C
B2 displayed an IC50 in the assay with IL23R_huFC [3] of 1000 to 10000 nM.
For Ac-[dK][Abu]QTWQC[Phe(4-OMe)(4)][2Nal][αMeL]ENG-NH2 (thioether 2-7) [Ac-(D)Lys-[Cyclo-[[Abu]-QTWQC]]-[Phe(4-OMe)]-[2-Nal]-[α-MeLeu]-ENG-NH2], in assay [4], the “pStat3 HTRF IC50” value was < 10 nM. The IC50 with IL23R_huFC [5] was < 10 nM; with Rat IL-23R_huFC [2] it was 10 to 25 nM.

B3: gallic acid-[Pen]-QTWQ[Pen]-[Phe(4-OMe)]-[2-Nal]-[α-MeLys]-[Lys(Ac)]-NG-NH2 (peptide)
peptide: XQTWQXFXKKNG
modifications: N-terminal gallic acid; Pen-Pen disulfide; Phe(4-OMe); 2-Nal; α-MeLys; Lys(Ac); NH2
For the molecule B3, the IC50 with IL23R_huFC [3] was 1000 to 10000 nM.
Molecule Ac-[Abu]QTWQC[AEF][2Nal][αMeK]K(Isovaleryl)NG-NH2 (thioether 1-6) [Ac-Cyclo-[[Abu]-QTWQC]-[Phe[4-(2-aminoethoxy)]]-[2-Nal]-[α-MeLys]-[Lys(isovaleric acid)]-NG-NH2] gave an IC50 with Rat IL-23R_huFC [2] of 10 to 25 nM.
For the molecule Ac-[Abu]QT[Trp(6-Cl)]QC[AEF][2Nal][αMeK]ENG-NH2 (thioether 1-6) [Ac-Cyclo-[[Abu]-QT-[6-chloroTrp]-QC]-[Phe[4-(2-aminoethoxy)]]-[2-Nal]-[α-MeLys]-ENG-NH2], the “pStat3 HTRF IC50” value in assay [4] was < 10 nM. Besides, the IC50 with Rat IL-23R_huFC [2] and with IL23R_huFC [6] was 10 to 25 nM in each case.
Molecule Ac-[Abu]QTWQCY[2Nal][αMeK]ENG-NH2 (thioether 1-6) [Ac-Cyclo-[[Abu]-QTWQC]-Y-[2-Nal]-[α-MeLys]-ENG-NH2] gave an IC50 in the assay with Rat IL-23R_huFC [2] of 10 to 25 nM.
As to Ac-[Abu]QTWQC[Phe(4-OMe)(3)][2Nal][αMeK]K(Ac)NS-NH2 (thioether 1-6) [Ac-Cyclo-[[Abu]-QTWQC]-[Phe(4-OMe)]-[2-Nal][α-MeLys]-[Lys(Ac)]-NS-NH2], the “pStat3 HTRF IC50” value in assay [4] was < 10 nM. For the same molecule, the IC50 with Rat IL-23R_huFC [2] and in the assay with IL23R_huFC [6] was 10 to 25 nM in each case.
Consider Ac-[Abu]QTWQC[AEF][2Nal][αMeK]DNG-NH2 (thioether 1-6) [Ac-Cyclo-[[Abu]-QTWQC]-[Phe[4-(2-aminoethoxy)]]-[2-Nal][α-MeLys]-DNG-NH2], for which, in assay [4], the “pStat3 HTRF IC50” value was < 10 nM. In addition, the IC50 with IL23R_huFC [5] is < 10 nM; with Rat IL-23R_huFC [2], 10 to 25 nM.
For Ac-[Abu]QTWQC[Phe(4-OMe)(3)][2Nal][αMeK]K(Ac)NA-NH2 (thioether 1-6) [Ac-Cyclo-[[Abu]-QTWQC]-[Phe(4-OMe)]-[2-Nal][α-MeLys]-[Lys(Ac)]-NA-NH2], the “pStat3 HTRF IC50” value in assay [4] was < 10 nM. Moreover, the IC50 was < 10 nM with IL23R_huFC [5] and 10 to 25 nM with Rat IL-23R_huFC [2].
In the case of XQTWQCFXXKNG (as bracketed in name; thioether cyclo) [Ac-Cyclo-[[Abu]-QTWQC]-[Phe(4-OMe)]-[2-Nal]-[α-MeOrn]-[Lys(Ac)]-NG-NH2], the “pStat3 HTRF IC50” value in assay [4] was < 10 nM. Moreover, the IC50 in the assay with Rat IL-23R_huFC [2] and with IL23R_huFC [6] was 10 to 25 nM throughout.

B4: 4-methylmorpholine-2,6-dione-[Pen]-QTWQ[Pen]-[Phe(4-OMe)]-[2-Nal]-[α-MeLys]-[Lys(Ac)]-NG-NH2 (peptide)
peptide: XQTWQXFXKKNG
modifications: N-terminal 4-methylmorpholine-2,6-dione; Pen-Pen disulfide; Phe(4-OMe); 2-Nal; α-MeLys; Lys(Ac); NH2
B4 yielded an IC50 with Rat IL-23R_huFC [1] of 25 to 100 nM.
On to Ac-[Abu]QTWQC[Phe(4-OMe)(3)][2Nal][αMeK]K(Ac)NAE-NH2 (thioether 1-6) [Ac-Cyclo-[[Abu]-QTWQC]-[Phe(4-OMe)]-[2-Nal][α-MeLys]-[Lys(Ac)]-NAE-NH2], for which the “pStat3 HTRF IC50” value in assay [4] was < 10 nM. Also, the IC50 in the assay with IL23R_huFC [5] is < 10 nM; with Rat IL-23R_huFC [2], 10 to 25 nM.
In the assay with Rat IL-23R_huFC [2], Ac-[Abu]QTWQC[Phe(4-CONH2)][2Nal][αMeK]K(Ac)NG-NH2 (thioether 1-6) [Ac-Cyclo-[[Abu]-QTWQC]-[Phe(4-CONH2)]-[2-Nal][α-MeLys]-[Lys(Ac)]-NG-NH2] gave an IC50 of 10 to 25 nM.
For the molecule Ac-[2Nal][Abu]QTWQC[AEF][2Nal][αMeK]ENN-NH2 (thioether 2-7) [Ac-[2-Nal]-Cyclo-[[Abu]-QTWQC]-[Phe[4-(2-aminoethoxy)]]-[2-Nal]-[α-MeLys]-ENN-NH2], the “pStat3 HTRF IC50” value in assay [4] was < 10 nM. Moreover, the IC50 with IL23R_huFC [5] was < 10 nM; with Rat IL-23R_huFC [2], 10 to 25 nM.
